Our source for the Kd and stoichiometry N values is PMC3319784.

Experiment [1] addresses first Sam domain of Odin (Odin-Sam1) (human) (UniProt Q92625). As to the kind of experiment: ITC.
Experiment [2] addresses Sam domain of the EphA2 receptor (EphA2-Sam), wild type (human) (UniProt P29317). Put plainly: SPR.

In experiment [1], “Sam domain of the EphA2 receptor (EphA2-Sam), wild type (from UniProt P29317 902-976) (domain or fragment)” registered a Kd of 0.62 µM and a stoichiometry N of 1.

B1: first Sam domain of Odin (Odin-Sam1) (domain or fragment)
chain: ISGLRTLEQSVGEWLESIGLQQYESKLLLNGFDDVHFLGSNVMEEQDLRDIGISDPQHRRKLLQAARSLPKVKALGYDGN
Take B1: the Kd in experiment [2] came out at 5.5 µM.
